Experimental data published in PMC8113879, “Molecular properties of human guanylate cyclase–activating protein 2 (GCAP2) and its retinal dystrophy–associated variant G157R” (The Journal of Biological Chemistry, 2021).
Numbering of substitutions follows the chain as printed. Names and notes keep the numbering of the source.

Columns and labels:
GCAP2 (Bos taurus) = GCAP2 (Bos taurus) (UniProt P51177); test: sedimentation equilibrium; conditions: cited from earlier work
[1] = target: the molecule itself; test: MALDI-TOF MS; 1.0 mg/ml protein in 20 mM Tris HCl pH 7.5, 150 mM KCl, 1 mM DTT, desalted by ZipTip C4, sinapinic acid matrix; dimer peaks beside the monomer peak
[2] = target: the molecule itself; test: SEC; analytical SEC, Superose 12 10/300GL, 20 mM Tris HCl pH 7.5, 150 mM KCl, 1 mM DTT, 1 mM Mg2+ + 500 uM Ca2+, 25 C; ~40 uM protein or 5-80 uM for the titration; apparent KD from a hyperbolic fit of apparent mass against concentration; monomer to dimer
[3] = target: the molecule itself; test: SEC; analytical SEC, Superose 12 10/300GL, 20 mM Tris HCl pH 7.5, 150 mM KCl, 1 mM DTT, 500 uM EGTA + 1 mM Mg2+ (no Ca2+), 25 C; ~40 uM protein or 5-80 uM for the titration; apparent KD from a hyperbolic fit of apparent mass against concentration; monomer to dimer

Chain of GCAP2 (Bos taurus) (P51177 2-204): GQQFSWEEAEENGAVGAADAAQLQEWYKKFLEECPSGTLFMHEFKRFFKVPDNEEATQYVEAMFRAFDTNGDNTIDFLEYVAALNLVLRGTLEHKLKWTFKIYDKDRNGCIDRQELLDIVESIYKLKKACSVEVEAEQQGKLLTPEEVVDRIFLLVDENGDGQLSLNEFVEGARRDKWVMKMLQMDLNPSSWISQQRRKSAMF

In the case of GCAP2 (from UniProt P51177), the Kd (GCAP2 (Bos taurus)) is listed as 52 µM.

B1: nonmyristoylated human guanylate cyclase-activating protein 2 (natural protein, UniProt Q9UMX6 1-200, looked up)
chain: MGQEFSWEEAEAAGEIDVAELQEWYKKFVMECPSGTLFMHEFKRFFKVTDDEEASQYVEGMFRAFDKNGDNTIDFLEYVAALNLVLRGTLEHKLKWTFKIYDKDGNGCIDRLELLNIVEGIYQLKKACRRELQTEQGQLLTPEEVVDRIFLLVDENGDGQLSLNEFVEGARRDKWVMKMLQMDMNPSSWLAQQRRKSAMF
notes: cDNA cloned into pET-11a(+) with NdeI and NheI; No tag is mentioned; also called nmGCAP2; nonmyristoylated GCAP2
In the case of B1, the “stoichiometry N” value [1] is reported as 2.

B2: myristoylated human guanylate cyclase-activating protein 2 (natural protein, UniProt Q9UMX6 1-200, looked up)
chain: B1 chain
modifications: myristic acid covalently bound to the N-terminal Gly
notes: cDNA cloned into pET-11a(+) with NdeI and NheI; Myristoylation was confirmed by MALDI-TOF (difference of 212.2 Da to nmGCAP2); Surmised: the first methionine is removed so that Gly2 is the myristoylated N-terminus; also called mGCAP2; myristoylated GCAP2
In the case of B2, the Kd [2] is reported as 55.4 µM, the “stoichiometry N” value [1] is reported as 2 and the Kd [3] is reported as under 1 µM.

B3: myristoylated human GCAP2 G157R variant (natural protein, UniProt Q9UMX6 1-200, looked up)
chain: B1 chain with G157R
modifications: myristic acid covalently bound to the N-terminal Gly
notes: The variant occurs in patients (Japanese families with retinitis pigmentosa); also called G157R GCAP2; IRD-associated G157R variant
For B3, the “stoichiometry N” value [1] was 2.
